Target: MIS type II receptor (MISRII) (human) (UniProt Q16671)
Experiment: cell-based or functional assay

Sequence of UniProt Q16671 (Q16671 18-573): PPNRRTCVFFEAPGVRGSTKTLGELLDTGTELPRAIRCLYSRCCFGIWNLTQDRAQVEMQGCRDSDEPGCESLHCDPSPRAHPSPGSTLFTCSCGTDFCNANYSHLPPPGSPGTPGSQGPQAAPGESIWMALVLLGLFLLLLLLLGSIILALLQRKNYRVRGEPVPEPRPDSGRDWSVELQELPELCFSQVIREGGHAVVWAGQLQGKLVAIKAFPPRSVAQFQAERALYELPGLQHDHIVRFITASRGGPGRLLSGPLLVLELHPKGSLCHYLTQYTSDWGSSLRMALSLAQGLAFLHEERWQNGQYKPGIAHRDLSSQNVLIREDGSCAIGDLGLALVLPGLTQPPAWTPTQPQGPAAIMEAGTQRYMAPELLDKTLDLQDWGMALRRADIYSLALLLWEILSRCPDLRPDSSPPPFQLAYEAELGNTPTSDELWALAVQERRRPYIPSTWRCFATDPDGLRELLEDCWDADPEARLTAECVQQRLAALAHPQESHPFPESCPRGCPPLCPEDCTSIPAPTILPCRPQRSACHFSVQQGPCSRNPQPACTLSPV

| decrease in cell proliferation (cultured endometrial cells transiently transfected with an MIS protein expression construct) [%] | Substance | decrease in viable cells (cultured endometrial cells, rhMIS 100 ng/mL, 72 hours) [%] |
| --- | --- | --- |
| 8 | MIS over-expressed from an MIS protein expression construct (ligand) | – |
| – | rhMIS (R&D Systems, Minneapolis, Minn.) (from UniProt P03971 452-560) (ligand) | 14 |

Source: patent US20120225824A1
